The target in the test is recombinant Epstein Barr virus (EBV) IL10 (Epstein Barr virus, UniProt P03180 24-170). In words: concentration-dependent changes in fluorescence intensity of the environment-sensitive fluorescein label on the peptide.

The values below come from patent publication US20130109619A1 (UNITED STATES OF AMERICA AS REPRESENTED BY THE SECRETARY …, published 2013).

Non-standard residues stand in square brackets, D forms with d. Fluo = fluorescein on the Cys side-chain sulfur; Nle = CCCC[C@H](N)C(=O)O

recombinant Epstein Barr virus (EBV) IL10, sequence (P03180 24-170 limits assumed): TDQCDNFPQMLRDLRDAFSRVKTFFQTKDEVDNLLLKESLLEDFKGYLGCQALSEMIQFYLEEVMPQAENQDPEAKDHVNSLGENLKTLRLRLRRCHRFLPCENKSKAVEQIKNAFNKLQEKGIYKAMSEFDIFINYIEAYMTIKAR

B1: IL10-HF-6 (peptide)
peptide: Ac-C(Fluo)YKA[Nle]SEFDIFINYIEAY[Nle]T[Nle]KIRN-NH2
notes: also called fluorescent derivative of helix F of IL10; helix F analog
The term Kd denotes the free concentration of one partner at which half of the binding sites on the other are occupied at equilibrium, for simple one-to-one binding. B1: the Kd amounted to 50 nM.
